Assays:
[1] = molecular target: T1, human 4EHP (residues 45-234) for ITC (human, UniProt O60573 45-234); assay: ITC; VP-ITC, 25 °C; TRS (1-74, 0.6 mM) in the syringe titrated against 4EHP (45-234, 0.035 mM); single binding site model
T1 chain: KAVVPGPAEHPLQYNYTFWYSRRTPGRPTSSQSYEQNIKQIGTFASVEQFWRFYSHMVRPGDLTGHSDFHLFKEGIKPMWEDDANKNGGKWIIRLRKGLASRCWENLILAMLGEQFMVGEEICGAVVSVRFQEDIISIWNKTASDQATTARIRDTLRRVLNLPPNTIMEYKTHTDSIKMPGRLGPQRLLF

[2] = molecular target: T1, human 4EHP (residues 45-234) for ITC; assay: ITC

B1: human TRS UNE-T (residues 1-74) with C-terminal His tag (domain or fragment)
chain: MFEEKASSPSGKMGGEEKPIGAGEEKQKEGGKKKNKEGSGDGGRAELNPWPEYIYTRLEMYNILKAEHDSILAE
Kd [1]: 2480 nM | stoichiometry N [1]: 1 | Ka [2]: 403000 M⁻¹
